For this assay, the target named is A/Solomon Islands/3/2006 (H1N1) HA (influenza A virus A/Solomon Islands/3/2006 (H1N1)). In words: cryo-EM structure.

In general, stoichiometry N refers to a count of units in the complex or per binding partner.

With “A/Solomon Islands/3/2006 (H1N1) HA (natural protein)”, the stoichiometry N came to 3.

The values above are taken from PMC13438699.
